Reference: US20150315569A1, “METHOD FOR SCREENING A NUCLEIC ACID-PROGRAMMED SMALL MOLECULE LIBRARY” (The Board of Trustees of the Leland Stanford Junior …, priority 2014, published 2015)

Tests used:
protein kinase A = molecular target: T1, protein kinase A (Mus musculus, UniProt P05132); assay: Selection for protein kinase A substrates from the DNA-programmed peptide library; gene/peptide enrichment by Illumina sequencing; format: biochemical, murine; conditions: for LTFE: In (total fold enrichment) after four rounds: after four rounds of PKA substrate selection, kinase-treated vs control population; for Rank: position on list of peptides ranked by fold enrichment: calculated by summing reads over the 1296 genes encoding each peptide, peptide-DNA conjugates
T1 construct: purchased New England Biolabs P6000L
Method: Programmed library synthesis was carried out by a series of DNA-directed library splitting steps followed by chemical coupling steps. For the splitting steps, the ssDNA library was hybridized to an anticodon array overnight at 37° C. using a mesofluidic hybridization pump (see, e.g., Weisinger et al. (2012) PLoS ONE, 7, e28056). The anticodon array with bound DNA was then mounted into a plate adapter device which uses rubber gaskets to form an isolated liquid channel above and below each array feature. The adapter device was placed on top of a 384-well polypropylene filterplate loaded with 5 μl aliquots of DEAE sepharose resin. DNA was eluted from each feature of the anticodon array onto the DEAE resin in the corresponding well of the filterplate by application of a denaturing buffer (10 mM NaOH with 1 mM EDTA and 0.005% Triton X-100) followed by gentle centrifugation of the stack (140×g for 1 minute). The DEAE resin in the filter plate was then washed three times with 85 μl H2O and three times with 85 μl dry methanol. Peptide couplings were performed using EDC and HOAt in methanol and DMF (see, e.g., Halpin et al., (2004) PLoS Biology, 2, E174). Following the synthetic steps, the filterplate was placed on top of a 384-well polypropylene microtiter plate, and DNA was eluted from the DEAE resin by application of a high salt buffer (1.5 M NaCl, 50 mM NaOH, 1 mM EDTA, and 0.005% Triton X-100) followed by gentle centrifugation. The eluted DNA was pooled, concentrated and buffer exchanged into hybridization buffer using a centrifugal filter device with a 10,000 Da molecular weight cut-off (GE Healthcare). BSA and tRNA were added to 0.5 mg/ml each. The sample was diluted to 3 ml with hybridization buffer and applied to another anticodon array. Following the final step of the chemical synthesis, the eluted DNA was split by hybridization for 3 hours at 37° C. to a pair of anticodon columns derivatized with the VE001 and VE002 anticodon sequences. The two halves of the library were concentrated with n-butanol extractions, precipitated with isopropanol, and subjected to kinase-substrate/mock selections respectively.
Translated libraries were incubated in PKA buffer (NEB) overnight at 30° C. with 10,000 units of protein kinase A and 1 mM ATPγS. For the selection between the third and fourth generations, the incubation was shortened to 1 hour at 30° C. Mock selections were performed identically, with the enzyme replaced by a 50% glycerol solution. After incubation, the crude reactions were diluted 1.5-fold and adjusted to 100 mM NaOAc pH 5.2 and 25% dimethyl formamide. EZ-Link iodoacetyl-LC-biotin (Pierce Thermo Fisher Scientific, catalog #21333) was added to 600 μM. After 3 hours in the dark at 25° C., the enzyme-treated library was cleaned up by extraction with phenol: chloroform and n-butanol, and then precipitation with isopropanol. The library was resuspended in 27.5 μl bind buffer (10 mM Tris pH 7.4, 1 mM EDTA, 1 M NaCl), and 1.25 mg/ml tRNA and 0.25 mg/ml BSA were added. The library was then incubated with 15 μl of μMACS streptavidin microbeads (MiltenyiBiotec, 130-074-101) overnight at room temperature. The microbeads were purified and washed over MACS columns according to the manufacturer's instructions, and the purification process was repeated a second time. DNA was amplified directly off of the streptavidin beads by PCR.
25 pmol of amplified DNA was used as a template in a PCR reaction that appended Illumina adaptor sequences. The PCR product was quantified on an Agilent 2100 Bioanalyzer, and a 10 nM solution was submitted to the Stanford Functional Genomics Facility for sequencing using custom primers. Paired-end 150-bp reads were obtained on a MiSeqIllumina Sequencer.
The sequencing data were processed using scripts written in either AWK or MATLAB. […]

RRMTV (SEQ ID NO: 6) = tested on: T2, RRMTV (SEQ ID NO: 6)
T2 sequence: RRMTV

RRFSV (SEQ ID NO: 4) = tested on: T3, RRFSV (SEQ ID NO: 4)
T3 sequence: RRFSV

RRSF (SEQ ID NO: 8) = tested on: T4, RRSF (SEQ ID NO: 8)
T4 sequence: RRSF

[1] = tested on: T5, Kemptide heptapeptide LRRASLG (SEQ ID NO: 10)
T5 sequence: LRRASLG

RRMS (SEQ ID NO: 9) = tested on: T6, RRMS (SEQ ID NO: 9)
T6 sequence: RRMS

RMSF (SEQ ID NO: 7) = tested on: T7, RMSF (SEQ ID NO: 7)
T7 sequence: RMSF

RRMSV (SEQ ID NO: 5) = tested on: T8, RRMSV (SEQ ID NO: 5)
T8 sequence: RRMSV

RRSFV (SEQ ID NO: 2) = tested on: T9, RRSFV (SEQ ID NO: 2)
T9 sequence: RRSFV

RRASL (SEQ ID NO: 3) = tested on: T10, RRASL (SEQ ID NO: 3)
T10 sequence: RRASL

RMSF
LTFE: In (total fold enrichment) after four rounds (protein kinase A): 7.6
Rank: position on list of peptides ranked by fold enrichment (protein kinase A; fourth generation): 147

RRASL (sythetic peptide)
LTFE: In (total fold enrichment) after four rounds (protein kinase A): 10.6
Rank: position on list of peptides ranked by fold enrichment (protein kinase A; fourth generation): 20

RRFSV
LTFE: In (total fold enrichment) after four rounds (protein kinase A): 10.2
Rank: position on list of peptides ranked by fold enrichment (protein kinase A; fourth generation): 33

RRMS
LTFE: In (total fold enrichment) after four rounds (protein kinase A): 3.0
Rank: position on list of peptides ranked by fold enrichment (protein kinase A; fourth generation): 1846

RRMSV
LTFE: In (total fold enrichment) after four rounds (protein kinase A): 9.5
Rank: position on list of peptides ranked by fold enrichment (protein kinase A; fourth generation): 51

RRMTV
LTFE: In (total fold enrichment) after four rounds (protein kinase A): 8.4
Rank: position on list of peptides ranked by fold enrichment (protein kinase A; fourth generation): 95

RRSF
LTFE: In (total fold enrichment) after four rounds (protein kinase A): 6.3
Rank: position on list of peptides ranked by fold enrichment (protein kinase A; fourth generation): 253

RRSFL
peptide enrichment in the fourth generation library (result in words) (protein kinase A; reads of the 6^4 (1296) genes per peptide summed): most highly enriched peptide

RRSFV
LTFE: In (total fold enrichment) after four rounds (protein kinase A): 11.1
Rank: position on list of peptides ranked by fold enrichment (protein kinase A; fourth generation): 7
median enrichment of the genes encoding the peptide (protein kinase A; fourth generation, single genes (one codon per amino acid model)): 175,000 fold

catalytic subunit of murine cAMP-activated protein kinase A
Rel. kcat/Km (relative to Kemptide) (RRMTV (SEQ ID NO: 6)): 0.031
Rel. kcat/Km (relative to Kemptide) (RRFSV (SEQ ID NO: 4)): 4.1
Rel. kcat/Km (relative to Kemptide) (RRSF (SEQ ID NO: 8)): 0.05
Rel. kcat/Km (relative to Kemptide) [1]: 1
Rel. kcat/Km (relative to Kemptide) (RRMS (SEQ ID NO: 9)): 0.028
Rel. kcat/Km (relative to Kemptide) (RMSF (SEQ ID NO: 7)): 0.0028
Rel. kcat/Km (relative to Kemptide) (RRMSV (SEQ ID NO: 5)): 2.2
Rel. kcat/Km (relative to Kemptide) (RRSFV (SEQ ID NO: 2)): 0.16
Rel. kcat/Km (relative to Kemptide) (RRASL (SEQ ID NO: 3)): 0.27
